T1: FcγRIIa(R) extracellular domain, C-terminal His tag (human, UniProt P12318 34-217)
T1 construct: extracellular domain; also called 2aR
T1 sequence: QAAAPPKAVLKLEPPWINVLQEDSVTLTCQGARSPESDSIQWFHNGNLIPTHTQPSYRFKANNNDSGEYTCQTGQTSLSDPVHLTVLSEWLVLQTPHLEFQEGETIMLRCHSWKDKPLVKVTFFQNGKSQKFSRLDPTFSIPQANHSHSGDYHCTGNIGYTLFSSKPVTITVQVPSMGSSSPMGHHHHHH

T2: FcγRIIa(H) extracellular domain, C-terminal His tag (human, UniProt P12318 34-217)
T2 construct: extracellular domain; also called 2aH
T2 sequence: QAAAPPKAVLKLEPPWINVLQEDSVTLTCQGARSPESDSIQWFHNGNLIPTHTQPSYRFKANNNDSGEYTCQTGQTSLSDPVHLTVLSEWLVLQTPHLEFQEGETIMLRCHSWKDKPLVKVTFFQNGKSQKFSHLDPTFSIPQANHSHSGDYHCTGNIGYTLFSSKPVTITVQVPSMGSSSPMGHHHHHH

T3: FcγRIIb extracellular domain, C-terminal His tag (human, UniProt P31994 43-217)
T3 construct: extracellular domain; also called 2b
T3 sequence: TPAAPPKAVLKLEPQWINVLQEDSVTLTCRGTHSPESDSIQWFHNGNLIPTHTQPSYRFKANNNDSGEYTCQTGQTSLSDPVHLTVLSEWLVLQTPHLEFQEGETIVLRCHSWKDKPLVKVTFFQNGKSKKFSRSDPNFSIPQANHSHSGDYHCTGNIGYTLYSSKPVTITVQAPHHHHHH


Columns and labels:
Assay in all cases: SPR; He Ab vs HeCon Ab (GpH7-A5/GpH7-B3/GpL16-k0)=100;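 further: surface plasmon resonance at 25 °C with the test antibody captured on a sensor chip via antigenic peptide, protein L or protein A/G and FcγR flowed over as analyte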
[1] = target: T1, FcγRIIa(R) extracellular domain, …
[2] = target: T2, FcγRIIa(H) extracellular domain, …
[3] = target: T4, FcγRIIIa extracellular domain, C-terminal His tag (human, UniProt P08637 17-208)
T4 construct: extracellular domain; also called 3a
T4 sequence (P08637 other isoform, or with tags, fused parts or gaps): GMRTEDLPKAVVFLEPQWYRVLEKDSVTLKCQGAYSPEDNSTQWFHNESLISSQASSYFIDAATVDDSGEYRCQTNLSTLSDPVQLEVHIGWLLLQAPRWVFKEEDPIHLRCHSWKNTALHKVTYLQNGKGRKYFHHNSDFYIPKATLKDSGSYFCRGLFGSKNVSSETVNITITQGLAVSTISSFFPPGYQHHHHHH

[4] = target: T5, FcγRIa extracellular domain, C-terminal His tag (human, UniProt P12314 16-292)
T5 construct: extracellular domain; also called 1a
T5 sequence (P12314 other isoform, or with tags, fused parts or gaps): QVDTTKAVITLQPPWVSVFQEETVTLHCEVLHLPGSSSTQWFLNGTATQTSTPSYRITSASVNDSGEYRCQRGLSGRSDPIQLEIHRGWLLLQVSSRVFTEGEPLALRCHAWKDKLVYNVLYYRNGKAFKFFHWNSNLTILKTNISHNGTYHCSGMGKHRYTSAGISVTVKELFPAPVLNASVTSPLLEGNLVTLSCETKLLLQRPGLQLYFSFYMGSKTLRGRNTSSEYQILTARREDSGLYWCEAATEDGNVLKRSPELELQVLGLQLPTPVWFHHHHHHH

[5] = target: T3, FcγRIIb extracellular domain, …

Binder	He/Con 2aR [1] [%]	He/Con 2aH [2] [%]	He/Con 3a [3] [%]	He/Con 1a [4] [%]	He/Con 2b [5] [%]
GpH7-A5/GpH7-B3 variant S324_09D/GpL16-k0 (antibody, human IgG1, kappa, heterodimerized IgG1, one H chain mutated; also called He Ab; copies: 1 + 1 + 2) heavy 1: not shown heavy 2: not shown light: DIVMTQSPLSLPVTPGEPASISCQASESLVHSNRNTYLHWYLQKPGQSPQLLIYKVSNRFSGVPDRFSGSGSGTDFTLKISRVEAEDVGVYYCSQNTHVPPTFGQGTKVEIERTVAAPSVFIFPPSDEQLKSGTASVVCLLNNFYPREAKVQWKVDNALQSGNSQESVTEQDSKDSTYSLSSTLTLSKADYEKHKVYACEVTHQGLSSPVTKSFNRGEC	102	117	110	97.7	112
GpH7-A5/GpH7-B3 variant S324_10E/GpL16-k0 (antibody, human IgG1, kappa, heterodimerized IgG1, one H chain mutated; also called He Ab; copies: 1 + 1 + 2) heavy 1: not shown heavy 2: not shown light: DIVMTQSPLSLPVTPGEPASISCQASESLVHSNRNTYLHWYLQKPGQSPQLLIYKVSNRFSGVPDRFSGSGSGTDFTLKISRVEAEDVGVYYCSQNTHVPPTFGQGTKVEIERTVAAPSVFIFPPSDEQLKSGTASVVCLLNNFYPREAKVQWKVDNALQSGNSQESVTEQDSKDSTYSLSSTLTLSKADYEKHKVYACEVTHQGLSSPVTKSFNRGEC	99	114	108	98.9	101
GpH7-A5/GpH7-B3 variant S324_12R/GpL16-k0 (antibody, human IgG1, kappa, heterodimerized IgG1, one H chain mutated; also called He Ab; copies: 1 + 1 + 2) heavy 1: not shown heavy 2: not shown light: DIVMTQSPLSLPVTPGEPASISCQASESLVHSNRNTYLHWYLQKPGQSPQLLIYKVSNRFSGVPDRFSGSGSGTDFTLKISRVEAEDVGVYYCSQNTHVPPTFGQGTKVEIERTVAAPSVFIFPPSDEQLKSGTASVVCLLNNFYPREAKVQWKVDNALQSGNSQESVTEQDSKDSTYSLSSTLTLSKADYEKHKVYACEVTHQGLSSPVTKSFNRGEC	84	107	98.1	95.9	82.4
GpH7-A5/GpH7-B3 variant S324_18N/GpL16-k0 (antibody, human IgG1, kappa, heterodimerized IgG1, one H chain mutated; also called He Ab; copies: 1 + 1 + 2) heavy 1: not shown heavy 2: not shown light: DIVMTQSPLSLPVTPGEPASISCQASESLVHSNRNTYLHWYLQKPGQSPQLLIYKVSNRFSGVPDRFSGSGSGTDFTLKISRVEAEDVGVYYCSQNTHVPPTFGQGTKVEIERTVAAPSVFIFPPSDEQLKSGTASVVCLLNNFYPREAKVQWKVDNALQSGNSQESVTEQDSKDSTYSLSSTLTLSKADYEKHKVYACEVTHQGLSSPVTKSFNRGEC	101	109	103	109	106
GpH7-A5/GpH7-B3 variant S324_14T/GpL16-k0 (antibody, human IgG1, kappa, heterodimerized IgG1, one H chain mutated; also called He Ab; copies: 1 + 1 + 2) heavy 1: not shown heavy 2: not shown light: DIVMTQSPLSLPVTPGEPASISCQASESLVHSNRNTYLHWYLQKPGQSPQLLIYKVSNRFSGVPDRFSGSGSGTDFTLKISRVEAEDVGVYYCSQNTHVPPTFGQGTKVEIERTVAAPSVFIFPPSDEQLKSGTASVVCLLNNFYPREAKVQWKVDNALQSGNSQESVTEQDSKDSTYSLSSTLTLSKADYEKHKVYACEVTHQGLSSPVTKSFNRGEC	93.9	107	112	114	115
GpH7-A5/GpH7-B3 variant S324_15Y/GpL16-k0 (antibody, human IgG1, kappa, heterodimerized IgG1, one H chain mutated; also called He Ab; copies: 1 + 1 + 2) heavy 1: not shown heavy 2: not shown light: DIVMTQSPLSLPVTPGEPASISCQASESLVHSNRNTYLHWYLQKPGQSPQLLIYKVSNRFSGVPDRFSGSGSGTDFTLKISRVEAEDVGVYYCSQNTHVPPTFGQGTKVEIERTVAAPSVFIFPPSDEQLKSGTASVVCLLNNFYPREAKVQWKVDNALQSGNSQESVTEQDSKDSTYSLSSTLTLSKADYEKHKVYACEVTHQGLSSPVTKSFNRGEC	107	114	110	107	115
GpH7-A5/GpH7-B3 variant S324_19Q/GpL16-k0 (antibody, human IgG1, kappa, heterodimerized IgG1, one H chain mutated; also called He Ab; copies: 1 + 1 + 2) heavy 1: not shown heavy 2: not shown light: DIVMTQSPLSLPVTPGEPASISCQASESLVHSNRNTYLHWYLQKPGQSPQLLIYKVSNRFSGVPDRFSGSGSGTDFTLKISRVEAEDVGVYYCSQNTHVPPTFGQGTKVEIERTVAAPSVFIFPPSDEQLKSGTASVVCLLNNFYPREAKVQWKVDNALQSGNSQESVTEQDSKDSTYSLSSTLTLSKADYEKHKVYACEVTHQGLSSPVTKSFNRGEC	86.8	106	96.2	106	87.2
GpH7-A5/GpH7-B3 variant S324_11K/GpL16-k0 (antibody, human IgG1, kappa, heterodimerized IgG1, one H chain mutated; also called He Ab; copies: 1 + 1 + 2) heavy 1: not shown heavy 2: not shown light: DIVMTQSPLSLPVTPGEPASISCQASESLVHSNRNTYLHWYLQKPGQSPQLLIYKVSNRFSGVPDRFSGSGSGTDFTLKISRVEAEDVGVYYCSQNTHVPPTFGQGTKVEIERTVAAPSVFIFPPSDEQLKSGTASVVCLLNNFYPREAKVQWKVDNALQSGNSQESVTEQDSKDSTYSLSSTLTLSKADYEKHKVYACEVTHQGLSSPVTKSFNRGEC	91	102	90.2	96.3	89.6

Results, then the binder that gave them:

He/Con 2aR [1] [%]	He/Con 2aH [2] [%]	He/Con 3a [3] [%]	He/Con 1a [4] [%]	He/Con 2b [5] [%]	Binder
96.7	92.7	75.8	101	85.5	GpH7-A5/GpH7-B3 variant Y296_07I/GpL16-k0 (antibody, human IgG1, kappa, heterodimerized IgG1, one H chain mutated; also called He Ab; copies: 1 + 1 + 2) heavy 1: not shown heavy 2: not shown light: DIVMTQSPLSLPVTPGEPASISCQASESLVHSNRNTYLHWYLQKPGQSPQLLIYKVSNRFSGVPDRFSGSGSGTDFTLKISRVEAEDVGVYYCSQNTHVPPTFGQGTKVEIERTVAAPSVFIFPPSDEQLKSGTASVVCLLNNFYPREAKVQWKVDNALQSGNSQESVTEQDSKDSTYSLSSTLTLSKADYEKHKVYACEVTHQGLSSPVTKSFNRGEC
92	86.9	69.1	101	80.4	GpH7-A5/GpH7-B3 variant Y296_03V/GpL16-k0 (antibody, human IgG1, kappa, heterodimerized IgG1, one H chain mutated; also called He Ab; copies: 1 + 1 + 2) heavy 1: not shown heavy 2: not shown light: DIVMTQSPLSLPVTPGEPASISCQASESLVHSNRNTYLHWYLQKPGQSPQLLIYKVSNRFSGVPDRFSGSGSGTDFTLKISRVEAEDVGVYYCSQNTHVPPTFGQGTKVEIERTVAAPSVFIFPPSDEQLKSGTASVVCLLNNFYPREAKVQWKVDNALQSGNSQESVTEQDSKDSTYSLSSTLTLSKADYEKHKVYACEVTHQGLSSPVTKSFNRGEC
91.6	91.6	51.3	99.4	80.4	GpH7-A5/GpH7-B3 variant Y296_01G/GpL16-k0 (antibody, human IgG1, kappa, heterodimerized IgG1, one H chain mutated; also called He Ab; copies: 1 + 1 + 2) heavy 1: not shown heavy 2: not shown light: DIVMTQSPLSLPVTPGEPASISCQASESLVHSNRNTYLHWYLQKPGQSPQLLIYKVSNRFSGVPDRFSGSGSGTDFTLKISRVEAEDVGVYYCSQNTHVPPTFGQGTKVEIERTVAAPSVFIFPPSDEQLKSGTASVVCLLNNFYPREAKVQWKVDNALQSGNSQESVTEQDSKDSTYSLSSTLTLSKADYEKHKVYACEVTHQGLSSPVTKSFNRGEC
105	97.8	79.5	101	101	GpH7-A5/GpH7-B3 variant Y296_04F/GpL16-k0 (antibody, human IgG1, kappa, heterodimerized IgG1, one H chain mutated; also called He Ab; copies: 1 + 1 + 2) heavy 1: not shown heavy 2: not shown light: DIVMTQSPLSLPVTPGEPASISCQASESLVHSNRNTYLHWYLQKPGQSPQLLIYKVSNRFSGVPDRFSGSGSGTDFTLKISRVEAEDVGVYYCSQNTHVPPTFGQGTKVEIERTVAAPSVFIFPPSDEQLKSGTASVVCLLNNFYPREAKVQWKVDNALQSGNSQESVTEQDSKDSTYSLSSTLTLSKADYEKHKVYACEVTHQGLSSPVTKSFNRGEC
93	89.1	66.3	99.8	83.1	GpH7-A5/GpH7-B3 variant Y296_02A/GpL16-k0 (antibody, human IgG1, kappa, heterodimerized IgG1, one H chain mutated; also called He Ab; copies: 1 + 1 + 2) heavy 1: not shown heavy 2: not shown light: DIVMTQSPLSLPVTPGEPASISCQASESLVHSNRNTYLHWYLQKPGQSPQLLIYKVSNRFSGVPDRFSGSGSGTDFTLKISRVEAEDVGVYYCSQNTHVPPTFGQGTKVEIERTVAAPSVFIFPPSDEQLKSGTASVVCLLNNFYPREAKVQWKVDNALQSGNSQESVTEQDSKDSTYSLSSTLTLSKADYEKHKVYACEVTHQGLSSPVTKSFNRGEC
96.8	94.2	74.6	101	89	GpH7-A5/GpH7-B3 variant Y296_06M/GpL16-k0 (antibody, human IgG1, kappa, heterodimerized IgG1, one H chain mutated; also called He Ab; copies: 1 + 1 + 2) heavy 1: not shown heavy 2: not shown light: DIVMTQSPLSLPVTPGEPASISCQASESLVHSNRNTYLHWYLQKPGQSPQLLIYKVSNRFSGVPDRFSGSGSGTDFTLKISRVEAEDVGVYYCSQNTHVPPTFGQGTKVEIERTVAAPSVFIFPPSDEQLKSGTASVVCLLNNFYPREAKVQWKVDNALQSGNSQESVTEQDSKDSTYSLSSTLTLSKADYEKHKVYACEVTHQGLSSPVTKSFNRGEC
93.7	86.9	72.4	101	83.5	GpH7-A5/GpH7-B3 variant Y296_08L/GpL16-k0 (antibody, human IgG1, kappa, heterodimerized IgG1, one H chain mutated; also called He Ab; copies: 1 + 1 + 2) heavy 1: not shown heavy 2: not shown light: DIVMTQSPLSLPVTPGEPASISCQASESLVHSNRNTYLHWYLQKPGQSPQLLIYKVSNRFSGVPDRFSGSGSGTDFTLKISRVEAEDVGVYYCSQNTHVPPTFGQGTKVEIERTVAAPSVFIFPPSDEQLKSGTASVVCLLNNFYPREAKVQWKVDNALQSGNSQESVTEQDSKDSTYSLSSTLTLSKADYEKHKVYACEVTHQGLSSPVTKSFNRGEC

Reference: US20260167699A1 (Chugai, published 2026)
